Test results taken from PMC6265484, “Homodimerization regulates an endothelial specific signature of the SOX18 transcription factor” (Nucleic Acids Research, 2018).

Tests used:
Assay in all cases: single-molecule two-colour coincidence fluorescence spectroscopy; GFP- and Cherry-tagged proteins made in LTE, diluted to about 100 pM, confocal detection with 488 and 561 nm lasers, room temperature; coincidence ratio C = mCherry/(GFP + mCherry)
human RBPJ = human RBPJ (human, UniProt Q06330 1-500); settings: partners not purified
Sequence of human RBPJ (Q06330 whole entry): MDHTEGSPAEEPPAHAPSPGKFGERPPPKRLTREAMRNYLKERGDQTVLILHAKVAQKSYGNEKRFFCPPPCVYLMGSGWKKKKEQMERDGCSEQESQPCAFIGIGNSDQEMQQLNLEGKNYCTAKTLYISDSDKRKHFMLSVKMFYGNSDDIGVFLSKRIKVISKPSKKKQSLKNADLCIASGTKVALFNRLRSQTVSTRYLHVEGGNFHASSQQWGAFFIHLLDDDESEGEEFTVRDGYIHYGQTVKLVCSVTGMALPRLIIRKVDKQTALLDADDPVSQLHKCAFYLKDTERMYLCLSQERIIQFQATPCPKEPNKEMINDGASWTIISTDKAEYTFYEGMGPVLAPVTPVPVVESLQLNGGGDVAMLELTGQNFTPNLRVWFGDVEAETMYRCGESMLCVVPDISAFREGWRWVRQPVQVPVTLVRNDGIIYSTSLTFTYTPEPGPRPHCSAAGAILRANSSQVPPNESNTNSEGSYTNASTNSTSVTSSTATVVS

RXRA = biological target: T1, RXRA (UniProt P19793 1-462); settings: partners not purified
T1 sequence (looked up): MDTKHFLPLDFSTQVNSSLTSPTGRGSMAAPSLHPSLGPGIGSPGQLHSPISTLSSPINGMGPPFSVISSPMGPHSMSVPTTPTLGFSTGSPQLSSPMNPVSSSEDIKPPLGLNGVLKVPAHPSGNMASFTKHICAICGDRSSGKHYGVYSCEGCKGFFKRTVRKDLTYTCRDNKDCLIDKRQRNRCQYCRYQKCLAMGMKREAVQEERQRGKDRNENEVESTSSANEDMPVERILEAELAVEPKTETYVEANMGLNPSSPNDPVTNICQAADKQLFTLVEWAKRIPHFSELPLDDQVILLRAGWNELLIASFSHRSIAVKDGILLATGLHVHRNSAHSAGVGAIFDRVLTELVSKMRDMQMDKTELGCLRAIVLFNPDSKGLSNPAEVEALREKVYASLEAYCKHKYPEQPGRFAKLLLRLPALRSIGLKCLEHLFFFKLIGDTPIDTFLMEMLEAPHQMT

human MEF2C = human MEF2C (human, UniProt Q06413 1-473); settings: partners not purified
Sequence of human MEF2C (Q06413 whole entry): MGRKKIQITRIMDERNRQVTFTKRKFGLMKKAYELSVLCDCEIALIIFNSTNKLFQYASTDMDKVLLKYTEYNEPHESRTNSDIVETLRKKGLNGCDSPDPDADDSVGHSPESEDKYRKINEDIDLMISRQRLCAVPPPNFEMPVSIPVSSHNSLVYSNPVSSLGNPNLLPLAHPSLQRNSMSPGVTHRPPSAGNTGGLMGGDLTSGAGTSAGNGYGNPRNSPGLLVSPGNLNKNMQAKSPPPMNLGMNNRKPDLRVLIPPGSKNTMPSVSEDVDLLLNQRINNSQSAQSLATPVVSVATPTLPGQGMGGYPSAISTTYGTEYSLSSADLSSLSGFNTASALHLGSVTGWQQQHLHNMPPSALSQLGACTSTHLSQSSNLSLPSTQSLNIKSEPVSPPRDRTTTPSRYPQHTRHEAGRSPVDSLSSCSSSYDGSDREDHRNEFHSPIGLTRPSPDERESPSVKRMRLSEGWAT

[1] = biological target: the molecule itself

B1: full-length human SOX18 (natural protein, UniProt P35713 1-384, looked up)
chain: MQRSPPGYGAQDDPPARRDCAWAPGHGAAADTRGLAAGPAALAAPAAPASPPSPQRSPPRSPEPGRYGLSPAGRGERQAADESRIRRPMNAFMVWAKDERKRLAQQNPDLHNAVLSKMLGKAWKELNAAEKRPFVEEAERLRVQHLRDHPNYKYRPRRKKQARKARRLEPGLLLPGLAPPQPPPEPFPAASGSARAFRELPPLGAEFDGLGLPTPERSPLDGLEPGEAAFFPPPAAPEDCALRPFRAPYAPTELSRDPGGCYGAPLAEALRTAPPAAPLAGLYYGTLGTPGPYPGPLSPPPEAPPLESAEPLGPAADLWADVDLTEFDQYLNCSRTRPDAPGLPYHVALAKLGPRAMSCPEESSLISALSDASSAVYYSACISG
stoichiometry N (human RBPJ): 2 | stoichiometry N (RXRA): 1 | stoichiometry N (human MEF2C): 2 | stoichiometry N [1]: 2
